Data published in the supplement of paper PMC9170038.

These sequences were tested on K4 kissing-loop RNA reporter (assay: apparent KD of K4 kissing-loop reporter; higher = weaker reporter binding). Conditions: Eterna round: R107; input ligand: none.
Protocol: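 RNA-MaP round R107: designed RNA switches with theophylline, tryptophan, arginine or FMN aptamers are transcribed on-chip within common flanks. They are titrated with a labelled K4 kissing-loop RNA reporter in RNA-MaP buffer (100 mM Tris pH 7.5, 80 mM KCl, 4 mM MgCl2), without ligand or with the indicated ligand. Median apparent KD per design.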
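Note: bound reporter read as fluorescence of individual clusters on recovered sequencing chips by microscopy, with normalized cluster intensities fitted with a binding model.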

Sequence | apparent KD of K4 kissing-loop reporter [nM]
GCAGUCCGGACGGCCGCCACUAUCCGUAAAGUGAUGUUUUACGAACAAUCGAUUGCAUAUCAGAAUAGGACCGGGUCCGUCGACC [theeternabot_sameState_KL_Trp_B_15] | 212

Same assay, conditions: Eterna round: R107; input ligand: theophylline 20 uM

Sequence | apparent KD of K4 kissing-loop reporter [nM]
ACAGUCGGCUGUGAUACCAGUCGUAUUACAACAUGUUGCAGUGAUGUUGCGAGAUAGGAUGACCCUUGGCAGCACUCAGUACGAC [Same State Theophylline B GF10] | 252
UCUGGAGCAUAUGAUACCAGCAGUGAGAGAGAGGAAGUAUAGUGAUGUUAUAUGAGAGAAUGCCCUUGGCAGCGUGUGUAGUGGG [SSTheophylB.M] | 94.5
AACUGUCAAGGACAACAUUACUGAAGUGAUACCAGCAUCGAAAGAUGCCCUUGGCAGCACUGACUUGCAGUGAUGUUGCAAGUAA [BrourdMod 7 - Jieux - Exclusion - Theophylline A] | 200
GAUUGUGAUGGAAACAUCGCAAUCUCUGAAGGAGCGCGUGAAAACGCAGGUAGGUCGCAGAACGACAAAGACAGUGAUGUUGUCA [Ex Arginine A K4 5] | 298
AGACGUUUGGGAAGGAGCGGAAUGUAAUACGGAACGCGUGGAGGUGCAGUGAUGUUGCAGAUCCAGGUAGGUCGCCCAAGGGACG [Esenraerve] | 137
GCCGUACGCAUGGAUACCAGCCGACCUGAUGUUAAGCUGGUGCCGUAGUGAUGUUACGAAGGCCCUUGGCAGCCAUGCGUACGGC | 176
AGACUACUGAUAGGAUAUAACAUACUAGCUCGUAUACCAAAGGUAUACGAGCUCCUUCUAGUGAUGUUAGAAGGGUCGGUAGUCA [Omei KL FMN B Exc B v4] | 99.6
GUGGUUUACGUAGGAUAUCGGUGAUGAGUAAAUGGAGUGAUGUUCCGAGAUUGAAUAUGAGAUGAGCGAGAAGGGCGGUUUAUGC [FMN B Same State; Euporia Solution 3] | 89.7
AGACUACUGACAGGAUAUGGCAUCCUGGUCGUAUACCGAAAGGUAUACGAUUUUCUUCUAGUGAUGUUAGAAGGGUCGGUAGUCA [Omei KL FMN B Exc B v15] | 89.2
ACAUUAGGCACGGCCGCCACUGGAUUAAGAUCUUAAGUAUUAAUUAACAUGAGUGAUGUUCAUGCCAGGACCGGGUGACUACCAU [KL-SSTryp-B11] | 267
AUUCGUUUAUGUGAUACCAGACUUUGCAGUGAUGUUGCUUUAAUUAAAGAUGUUUAGUUUGUCCCUUGGCAGCACUAUUUAUUUA [JR_SSTheophyB_Sub001] | 129
UUAGUCUAGAGAAGGAGCGAGUGAUGUUUGCUAAGCUAUAUAAUAAAAUAUAGCAAAUUUACUCAGGUAGGUCGCUCUAGACAUU [AK3 Exc Arginine B] | 149
CGCAGUGAUGUUGCUAUUAUUCUUGGUUAACGAGGACCGGUACGGCCGCCACUCGAUUUCUGUCUAGUCCAGUGUUUUUUUGAGU [whbob_EX_Tryp_A_t7] | 492
AAUGUACAAGUGAUGUUUGUACUUUCCGAAGGAGCGUCUAAUAAGACAGGUAGGUCGCGGAUACUCUAAAUAAUCAGGUCAUUGA [#06 K4 Arginine A Exclusion] | 80.6
GGGAGUAGUGCGGCCGCCACUGUGAAAGUAGAAGAAUAUAGUGAUGUUAUAUAGGAACAAAAGAAUAGGACCGGGCAUUAGAUUU [SSTRyptB.X] | 299
CUAUUUCGCGUGGAUACCAGCGGUCGUAAAAUGUCAGUGAUGUUGAAGAGGAAAAGAGCUCGCCCUUGGCAGCCAUUCCGCACUA [theeternabot_sameState_KL_Theo_B_34] | 446
UGUGAUGUGUAGUGUUAUGUUUUGCGGGAUACCAGAGUCUUUUUAUUCCCUUGGCAGCUUGAGUGAUGUUUGAUGCUGUUGUUGU [pwwamullin] | 463
GCAGUCCGGACGGCCGCCACUAUCCGUAAAGUGAUGUUUUACGAACAAUCGAUUGCAUAUCAGAAUAGGACCGGGUCCGUCGACC [theeternabot_sameState_KL_Trp_B_15] | 170

Same assay, conditions: Eterna round: R107; input ligand: tryptophan 2.4 mM

Sequence | apparent KD of K4 kissing-loop reporter [nM]
ACAGUCGGCUGUGAUACCAGUCGUAUUACAACAUGUUGCAGUGAUGUUGCGAGAUAGGAUGACCCUUGGCAGCACUCAGUACGAC [Same State Theophylline B GF10] | 209
UCUGGAGCAUAUGAUACCAGCAGUGAGAGAGAGGAAGUAUAGUGAUGUUAUAUGAGAGAAUGCCCUUGGCAGCGUGUGUAGUGGG [SSTheophylB.M] | 107
AACUGUCAAGGACAACAUUACUGAAGUGAUACCAGCAUCGAAAGAUGCCCUUGGCAGCACUGACUUGCAGUGAUGUUGCAAGUAA [BrourdMod 7 - Jieux - Exclusion - Theophylline A] | 194
GAUUGUGAUGGAAACAUCGCAAUCUCUGAAGGAGCGCGUGAAAACGCAGGUAGGUCGCAGAACGACAAAGACAGUGAUGUUGUCA [Ex Arginine A K4 5] | 234
AGACGUUUGGGAAGGAGCGGAAUGUAAUACGGAACGCGUGGAGGUGCAGUGAUGUUGCAGAUCCAGGUAGGUCGCCCAAGGGACG [Esenraerve] | 91.1
GCCGUACGCAUGGAUACCAGCCGACCUGAUGUUAAGCUGGUGCCGUAGUGAUGUUACGAAGGCCCUUGGCAGCCAUGCGUACGGC | 196
AGACUACUGAUAGGAUAUAACAUACUAGCUCGUAUACCAAAGGUAUACGAGCUCCUUCUAGUGAUGUUAGAAGGGUCGGUAGUCA [Omei KL FMN B Exc B v4] | 102
GUGGUUUACGUAGGAUAUCGGUGAUGAGUAAAUGGAGUGAUGUUCCGAGAUUGAAUAUGAGAUGAGCGAGAAGGGCGGUUUAUGC [FMN B Same State; Euporia Solution 3] | 54.7
AGACUACUGACAGGAUAUGGCAUCCUGGUCGUAUACCGAAAGGUAUACGAUUUUCUUCUAGUGAUGUUAGAAGGGUCGGUAGUCA [Omei KL FMN B Exc B v15] | 92.7
ACAUUAGGCACGGCCGCCACUGGAUUAAGAUCUUAAGUAUUAAUUAACAUGAGUGAUGUUCAUGCCAGGACCGGGUGACUACCAU [KL-SSTryp-B11] | 252
AUUCGUUUAUGUGAUACCAGACUUUGCAGUGAUGUUGCUUUAAUUAAAGAUGUUUAGUUUGUCCCUUGGCAGCACUAUUUAUUUA [JR_SSTheophyB_Sub001] | 48.8
UUAGUCUAGAGAAGGAGCGAGUGAUGUUUGCUAAGCUAUAUAAUAAAAUAUAGCAAAUUUACUCAGGUAGGUCGCUCUAGACAUU [AK3 Exc Arginine B] | 74.2
CGCAGUGAUGUUGCUAUUAUUCUUGGUUAACGAGGACCGGUACGGCCGCCACUCGAUUUCUGUCUAGUCCAGUGUUUUUUUGAGU [whbob_EX_Tryp_A_t7] | 263
AAUGUACAAGUGAUGUUUGUACUUUCCGAAGGAGCGUCUAAUAAGACAGGUAGGUCGCGGAUACUCUAAAUAAUCAGGUCAUUGA [#06 K4 Arginine A Exclusion] | 77.4
GGGAGUAGUGCGGCCGCCACUGUGAAAGUAGAAGAAUAUAGUGAUGUUAUAUAGGAACAAAAGAAUAGGACCGGGCAUUAGAUUU [SSTRyptB.X] | 198
CUAUUUCGCGUGGAUACCAGCGGUCGUAAAAUGUCAGUGAUGUUGAAGAGGAAAAGAGCUCGCCCUUGGCAGCCAUUCCGCACUA [theeternabot_sameState_KL_Theo_B_34] | 399
UGUGAUGUGUAGUGUUAUGUUUUGCGGGAUACCAGAGUCUUUUUAUUCCCUUGGCAGCUUGAGUGAUGUUUGAUGCUGUUGUUGU [pwwamullin] | 339
GCAGUCCGGACGGCCGCCACUAUCCGUAAAGUGAUGUUUUACGAACAAUCGAUUGCAUAUCAGAAUAGGACCGGGUCCGUCGACC [theeternabot_sameState_KL_Trp_B_15] | 201
